Where two headings read alike, the source gives them in different places.
Key:
[1] = target: mAb-EspB-B7
[2] = target: mAb-EspB-B7; remark: listed apart in the source
[3] = target: Peptide #50 (enteropathogenic E. coli (EPEC))
[4] = target: Peptide #49 + 50 (enteropathogenic E. coli (EPEC))
[5] = target: Peptide #49 (enteropathogenic E. coli (EPEC))

## CTSAQKASQVAEEAADAAQEC (modifications not checked) [Peptide #49 + 50]
[1]
  IC50 (read off the curve): 2 µg/mL

## CTSAQKASQVAEEAADC (modifications not checked) [Peptide #49]
[2]
  IC50 (read off the curve): 0.8 µg/mL

B1: mAb-EspB-B7 (antibody, V domains shown)
VH: EVQLLESGGGLVQPGGSLRLSCAASGFTFSHYAMNWVRQAPGKGLEWVSAINSNGDSTYYPDTVKDRFTISRDNSKNTLYLQMNSLRAEDTAVYYCARDRRAGYFDYWGQGTLVTVSS
VL: DIVLTQPPSASGTPGQRVTISCSGSRDNIGKNYVSWYQQLPGTAPKLLIYRNNQRPSGVPDRFSGSKSGTSASLAISGLRSEDEADYYCSAWDTSLNAYVFGPGTQLTVL
[3]
  EC50 (read off the curve): 0.4 µg/mL
[4]
  EC50 (read off the curve): 0.3 µg/mL
[5]
  EC50 (read off the curve): 0.5 µg/mL

From patent US20240166729A1
